From US20230082465A1 (published 2023) come the findings set out here.

Assay [1] concerns the target T1, Fibrinogen Fragment D (human, UniProt P02671 124-216; P02675 164-491; P02679 89-437).
T1 chain 1: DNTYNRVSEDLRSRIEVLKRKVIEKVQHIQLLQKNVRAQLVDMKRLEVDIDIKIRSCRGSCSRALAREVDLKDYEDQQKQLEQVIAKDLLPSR
T1 chain 2: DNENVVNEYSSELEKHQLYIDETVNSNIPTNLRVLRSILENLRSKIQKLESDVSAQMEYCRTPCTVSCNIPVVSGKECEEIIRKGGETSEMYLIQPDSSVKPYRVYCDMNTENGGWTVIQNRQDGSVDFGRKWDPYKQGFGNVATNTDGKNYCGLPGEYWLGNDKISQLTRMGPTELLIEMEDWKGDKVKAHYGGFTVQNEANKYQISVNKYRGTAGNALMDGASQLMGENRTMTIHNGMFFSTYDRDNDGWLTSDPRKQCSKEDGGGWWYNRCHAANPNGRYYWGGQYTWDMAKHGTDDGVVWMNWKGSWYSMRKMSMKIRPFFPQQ
T1 chain 3: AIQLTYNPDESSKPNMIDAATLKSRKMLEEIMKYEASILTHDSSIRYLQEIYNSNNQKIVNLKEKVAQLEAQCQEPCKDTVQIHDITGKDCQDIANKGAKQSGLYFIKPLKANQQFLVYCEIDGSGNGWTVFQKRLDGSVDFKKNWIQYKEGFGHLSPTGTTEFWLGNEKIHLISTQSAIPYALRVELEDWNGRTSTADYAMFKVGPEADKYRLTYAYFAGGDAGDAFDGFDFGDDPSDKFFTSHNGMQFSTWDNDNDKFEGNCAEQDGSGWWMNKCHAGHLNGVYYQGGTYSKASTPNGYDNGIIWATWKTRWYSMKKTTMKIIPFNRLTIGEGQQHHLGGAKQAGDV
In words: BLI.

Assay [2] has as its target T2, Fragment DD from fibrin (human, UniProt P02671 124-216; P02675 164-491; P02679 89-437).
T2 chain 1: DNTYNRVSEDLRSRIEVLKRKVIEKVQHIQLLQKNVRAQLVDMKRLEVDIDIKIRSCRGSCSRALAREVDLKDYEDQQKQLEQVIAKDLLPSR
T2 chain 2: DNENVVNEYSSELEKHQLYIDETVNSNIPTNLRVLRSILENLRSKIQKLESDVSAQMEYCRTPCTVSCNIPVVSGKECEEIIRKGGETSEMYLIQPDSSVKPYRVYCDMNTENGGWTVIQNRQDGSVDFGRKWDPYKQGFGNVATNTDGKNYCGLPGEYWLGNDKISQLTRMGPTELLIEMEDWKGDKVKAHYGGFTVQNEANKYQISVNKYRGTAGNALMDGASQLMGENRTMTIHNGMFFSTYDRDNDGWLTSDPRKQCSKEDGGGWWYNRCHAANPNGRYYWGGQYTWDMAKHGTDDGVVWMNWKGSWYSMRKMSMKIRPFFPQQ
T2 chain 3: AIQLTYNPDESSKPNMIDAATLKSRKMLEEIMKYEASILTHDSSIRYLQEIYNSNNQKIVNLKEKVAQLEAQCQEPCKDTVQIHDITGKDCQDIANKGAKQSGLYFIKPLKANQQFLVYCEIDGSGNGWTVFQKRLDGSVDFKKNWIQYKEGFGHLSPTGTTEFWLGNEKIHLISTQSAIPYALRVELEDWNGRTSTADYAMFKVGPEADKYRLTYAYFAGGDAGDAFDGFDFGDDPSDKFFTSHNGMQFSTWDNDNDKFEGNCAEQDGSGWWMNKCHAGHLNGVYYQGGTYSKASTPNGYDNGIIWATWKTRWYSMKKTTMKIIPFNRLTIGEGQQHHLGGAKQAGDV
Kind of assay: BLI.

B1: recombinant antibody #12 (antibody, V domains shown)
VH: QVQLQQPGAEVVRPGASVKLSCKASGYSFTSYWIHWLKQGPHQGLEWIGRIDPDDSETHYNQKFKDKALLTVDKSSSTAYMQLRSLTSEDSAVYYCARTNWDAWFAYWGQGTLVTVSA
VL: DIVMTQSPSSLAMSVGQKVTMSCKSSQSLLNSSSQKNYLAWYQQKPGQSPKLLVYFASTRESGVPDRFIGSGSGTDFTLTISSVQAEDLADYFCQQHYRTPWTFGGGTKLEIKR
B1: the dissociation constant Kd worked out at 36.8 nM in assay [1] and 0.417 nM in assay [2].
